# T1: E6AP ligase (Homo sapiens, UniProt Q05086)
# T1 construct: corresponding to full-length GST-E6AP; made in house; host or cells: E. coli
# T1 sequence (Q05086 1-872 isoform Q05086-3): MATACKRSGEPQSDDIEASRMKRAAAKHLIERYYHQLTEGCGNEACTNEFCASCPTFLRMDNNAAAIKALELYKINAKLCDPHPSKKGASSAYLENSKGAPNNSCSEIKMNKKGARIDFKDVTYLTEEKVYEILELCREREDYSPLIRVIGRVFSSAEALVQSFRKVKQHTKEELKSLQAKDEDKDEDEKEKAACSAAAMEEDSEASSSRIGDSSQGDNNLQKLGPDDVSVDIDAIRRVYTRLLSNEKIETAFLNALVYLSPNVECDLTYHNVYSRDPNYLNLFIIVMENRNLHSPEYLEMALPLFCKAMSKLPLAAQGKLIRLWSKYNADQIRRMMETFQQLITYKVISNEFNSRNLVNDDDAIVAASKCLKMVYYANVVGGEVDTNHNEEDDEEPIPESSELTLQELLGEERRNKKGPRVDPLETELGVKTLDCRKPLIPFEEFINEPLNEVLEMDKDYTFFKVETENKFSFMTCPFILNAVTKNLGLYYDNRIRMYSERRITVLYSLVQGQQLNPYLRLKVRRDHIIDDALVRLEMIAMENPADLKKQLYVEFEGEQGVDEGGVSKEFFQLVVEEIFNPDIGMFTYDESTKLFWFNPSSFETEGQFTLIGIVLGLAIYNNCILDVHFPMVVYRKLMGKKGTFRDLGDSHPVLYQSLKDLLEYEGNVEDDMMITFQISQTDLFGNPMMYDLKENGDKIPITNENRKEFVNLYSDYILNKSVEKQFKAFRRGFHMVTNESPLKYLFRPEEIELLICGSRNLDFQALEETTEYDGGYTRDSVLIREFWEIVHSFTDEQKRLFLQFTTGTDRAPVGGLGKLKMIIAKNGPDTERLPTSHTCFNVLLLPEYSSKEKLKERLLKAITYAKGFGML
# B1: E6 protein: recombinant human papilloma virus 16 E6 protein, 158 amino acids (protein)
# chain: MHQKRTAMFQDPQERPRKLPQLCTELQTTIHDIILECVYCKQQLLRREVYDFAFRDLCIVYRDGNPYAVCDKCLKFYSKISEYRHYCYSLYGTTLEQQYNKPLCDLLIRCINCQKPLCPEEKQRHLDKKQRFHNIRGRWTGRCMSCCRSSRTRRETQL
# Target: T1, E6AP ligase
# Assay: E6AP-catalyzed 125I-polyubiquitin chain formation, initial rates
# Type: biochemical
# Description: E6AP-catalyzed ^125I-Ubiquitin Conjugation Assay: The E3 ligase activity of recombinant E6AP ligase was quantitated in kinetic assays under initial velocity conditions (Ronchi et al., (2013) J. Biol. Chem. 288, 10349-10360, Ronchi & Haas (2012) Methods Mol. Biol. 832: 197-218). Rates of E6AP-catalyzed ^125I-polyubiquitin chain formation were measured at 37° C. in incubations of 25-μl final volume containing 50 mM Tris-HCl (pH 7.5), 1 mM ATP, 10 mM MgCl2, 1 mM DTT, 10 mM creatine phosphate, 1 IU of creatine phosphokinase, 5 μM ^125I-ubiquitin (approximately 1.5×10^4 cpm/pmol), 50 nM human Uba1, and the indicated concentrations of UbcH7 and E6AP ligase (Siepmann et al., (2003) J. Biol. Chem. 278: 9448-9457; Baboshina et al., (2001) J. Biol. Chem. 276: 39428-39437).
# Reactions were initiated by the addition of ^125I-ubiquitin. After 10-30 min, the reactions were quenched by the addition of 25 μl of 2×SDS sample buffer containing 0.3% (v/v) β-mercaptoethanol, and then the samples were heated to 100° C. for 3 min. The polyubiquitin conjugates were resolved from free ^125I-ubiquitin by 12% (w/v) SDS-PAGE under reducing conditions at 4° C. and visualized by autoradiography of the dried gels.
# Polyubiquitin chain formation was measured by excising lanes between the top of the resolving gel and the top of the stacker gel, representing anchored and free ^125I-polyubiquitin chains, respectively, and quantitating associated ^125I-ubiquitin by γ-counting. Absolute rates of ^125I-polyubiquitin chain formation were calculated from the associated radioactivity and the corrected specific radioactivity for ^125I-ubiquitin. Datum points represent single assay determinations, and complete data sets were evaluated by non-linear regression analysis using GraFit version 5.0 (Erithicus). Active Uba1, E2, and E6AP ligase were independently determined in parallel by their stoichiometric formation of ^125I-ubiquitin thioester.
molecule,measurement,setting,value
B1,"effect on initial rate, wild-type protein","20 nM E6 protein, 1 nM GST-E6AP",significantly enhanced
same,Kactivation,activation of E6AP ligase catalytic activity,1.5 nM
same,Kd,"from double reciprocal plot, His6-E6AP, read-out: Kd for E6 binding",1.5 nM
same,kcat,"in the presence of 20 nM E6 protein, 0.4 nM His6-E6AP",0.81 ± 0.045 s⁻¹
same,stimulation in E6AP ligase activity,saturating E6 protein,14 fold
same,mode of action,with respect to [UbcH7]o,non-essential activator

# — patent US9725708B2, “Methods of modulating ubiquitin ligase activity” (Board of Supervisors of Louisiana State University and …, priority 2012, dated 2017)
